Data taken from the supplement of paper PMC10065799, “High-throughput profiling of sequence recognition by tyrosine kinases and SH2 domains using bacterial peptide display” (eLife, 2023).

Columns and labels:
Jak2 = Jak2 (UniProt O60674); experiment: phosphorylation enrichment, bacterial display (enrichment ratio); higher = better substrate or ligand; peptides without Tyr show the background
Hck = Hck (UniProt P08631); experiment: as above
c-Src = experiment: as above
MERTK = MERTK (UniProt Q12866); experiment: as above
Chain of MERTK (Q12866 whole entry, looked up): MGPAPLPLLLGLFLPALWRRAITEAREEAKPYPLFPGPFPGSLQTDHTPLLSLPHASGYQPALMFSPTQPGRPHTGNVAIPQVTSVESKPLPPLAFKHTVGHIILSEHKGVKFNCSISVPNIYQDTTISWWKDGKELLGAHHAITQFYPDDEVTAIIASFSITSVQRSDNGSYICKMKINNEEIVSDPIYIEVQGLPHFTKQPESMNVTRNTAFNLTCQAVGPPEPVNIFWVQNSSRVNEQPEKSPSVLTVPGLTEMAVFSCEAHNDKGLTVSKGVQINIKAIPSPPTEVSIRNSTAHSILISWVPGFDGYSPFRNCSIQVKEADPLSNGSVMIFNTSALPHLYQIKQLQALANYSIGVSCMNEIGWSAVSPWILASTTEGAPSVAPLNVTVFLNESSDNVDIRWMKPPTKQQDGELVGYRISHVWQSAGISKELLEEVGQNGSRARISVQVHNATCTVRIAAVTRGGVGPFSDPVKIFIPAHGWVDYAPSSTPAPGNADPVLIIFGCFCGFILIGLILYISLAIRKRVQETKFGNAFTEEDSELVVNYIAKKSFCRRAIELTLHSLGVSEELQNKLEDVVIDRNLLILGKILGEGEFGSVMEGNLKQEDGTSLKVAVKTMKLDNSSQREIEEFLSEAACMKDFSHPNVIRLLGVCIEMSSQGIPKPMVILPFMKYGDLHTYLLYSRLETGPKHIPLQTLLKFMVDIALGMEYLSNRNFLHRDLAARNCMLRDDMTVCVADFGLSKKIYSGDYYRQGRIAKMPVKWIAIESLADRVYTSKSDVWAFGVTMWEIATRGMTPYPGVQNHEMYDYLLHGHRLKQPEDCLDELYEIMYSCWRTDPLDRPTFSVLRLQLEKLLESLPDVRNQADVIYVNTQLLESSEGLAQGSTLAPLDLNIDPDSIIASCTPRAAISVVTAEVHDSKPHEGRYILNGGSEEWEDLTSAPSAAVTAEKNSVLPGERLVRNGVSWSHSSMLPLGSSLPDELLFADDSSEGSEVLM

Fer (mouse) = experiment: as above
FGFR3 = FGFR3 (UniProt P22607); experiment: as above
Chain of FGFR3 (P22607 whole entry, looked up): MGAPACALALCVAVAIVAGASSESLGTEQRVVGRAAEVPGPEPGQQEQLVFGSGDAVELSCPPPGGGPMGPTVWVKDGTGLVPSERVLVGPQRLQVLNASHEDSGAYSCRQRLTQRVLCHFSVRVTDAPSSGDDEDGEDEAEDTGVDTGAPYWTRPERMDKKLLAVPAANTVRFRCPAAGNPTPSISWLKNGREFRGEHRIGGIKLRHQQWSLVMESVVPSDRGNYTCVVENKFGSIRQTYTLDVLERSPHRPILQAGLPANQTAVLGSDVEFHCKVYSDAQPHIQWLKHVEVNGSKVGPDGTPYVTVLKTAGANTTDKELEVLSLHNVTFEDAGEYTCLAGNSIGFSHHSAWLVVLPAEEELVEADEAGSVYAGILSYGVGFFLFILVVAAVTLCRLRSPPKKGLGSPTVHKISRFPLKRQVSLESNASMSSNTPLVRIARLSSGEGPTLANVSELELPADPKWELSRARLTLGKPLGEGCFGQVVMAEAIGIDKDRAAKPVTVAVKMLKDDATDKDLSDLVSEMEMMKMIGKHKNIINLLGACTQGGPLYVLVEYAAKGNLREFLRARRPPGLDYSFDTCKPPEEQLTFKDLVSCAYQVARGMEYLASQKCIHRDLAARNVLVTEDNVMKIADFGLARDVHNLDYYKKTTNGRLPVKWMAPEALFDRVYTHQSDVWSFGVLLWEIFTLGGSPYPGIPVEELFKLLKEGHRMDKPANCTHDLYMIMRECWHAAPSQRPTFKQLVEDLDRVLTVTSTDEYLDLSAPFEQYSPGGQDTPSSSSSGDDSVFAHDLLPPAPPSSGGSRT

AncSZ = experiment: as above
EPHB1 = EPHB1 (UniProt P54762); experiment: as above
Chain of EPHB1 (P54762 whole entry, looked up): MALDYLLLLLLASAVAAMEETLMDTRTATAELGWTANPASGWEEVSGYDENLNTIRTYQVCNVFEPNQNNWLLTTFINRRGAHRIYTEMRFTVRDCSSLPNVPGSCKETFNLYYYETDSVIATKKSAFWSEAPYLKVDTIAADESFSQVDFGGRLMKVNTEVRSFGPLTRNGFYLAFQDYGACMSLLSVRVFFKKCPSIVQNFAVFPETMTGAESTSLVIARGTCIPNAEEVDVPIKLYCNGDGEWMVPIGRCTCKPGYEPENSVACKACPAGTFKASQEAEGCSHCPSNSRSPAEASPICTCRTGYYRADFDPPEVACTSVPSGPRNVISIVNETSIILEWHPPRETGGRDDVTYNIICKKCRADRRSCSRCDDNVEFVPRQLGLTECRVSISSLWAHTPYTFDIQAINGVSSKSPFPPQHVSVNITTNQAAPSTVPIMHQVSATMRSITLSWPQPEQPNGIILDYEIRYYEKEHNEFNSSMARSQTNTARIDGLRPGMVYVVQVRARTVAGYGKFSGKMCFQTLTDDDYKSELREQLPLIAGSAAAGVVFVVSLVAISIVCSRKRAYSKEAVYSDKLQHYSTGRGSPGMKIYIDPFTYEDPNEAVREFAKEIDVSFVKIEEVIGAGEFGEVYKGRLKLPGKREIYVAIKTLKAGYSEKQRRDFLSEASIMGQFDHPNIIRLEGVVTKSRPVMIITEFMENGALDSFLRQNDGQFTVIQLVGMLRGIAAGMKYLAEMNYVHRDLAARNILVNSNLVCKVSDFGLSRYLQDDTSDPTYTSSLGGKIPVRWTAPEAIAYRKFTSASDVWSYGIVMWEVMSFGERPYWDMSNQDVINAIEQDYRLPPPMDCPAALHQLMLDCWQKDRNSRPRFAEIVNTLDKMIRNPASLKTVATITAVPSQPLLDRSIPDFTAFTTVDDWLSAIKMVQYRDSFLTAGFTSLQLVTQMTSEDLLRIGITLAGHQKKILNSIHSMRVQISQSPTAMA

c-Abl (mouse) = experiment: as above
Fyn = Fyn (UniProt P06241); experiment: as above
EPHB2 = EPHB2 (UniProt P29323); experiment: as above
Chain of EPHB2 (P29323 whole entry, looked up): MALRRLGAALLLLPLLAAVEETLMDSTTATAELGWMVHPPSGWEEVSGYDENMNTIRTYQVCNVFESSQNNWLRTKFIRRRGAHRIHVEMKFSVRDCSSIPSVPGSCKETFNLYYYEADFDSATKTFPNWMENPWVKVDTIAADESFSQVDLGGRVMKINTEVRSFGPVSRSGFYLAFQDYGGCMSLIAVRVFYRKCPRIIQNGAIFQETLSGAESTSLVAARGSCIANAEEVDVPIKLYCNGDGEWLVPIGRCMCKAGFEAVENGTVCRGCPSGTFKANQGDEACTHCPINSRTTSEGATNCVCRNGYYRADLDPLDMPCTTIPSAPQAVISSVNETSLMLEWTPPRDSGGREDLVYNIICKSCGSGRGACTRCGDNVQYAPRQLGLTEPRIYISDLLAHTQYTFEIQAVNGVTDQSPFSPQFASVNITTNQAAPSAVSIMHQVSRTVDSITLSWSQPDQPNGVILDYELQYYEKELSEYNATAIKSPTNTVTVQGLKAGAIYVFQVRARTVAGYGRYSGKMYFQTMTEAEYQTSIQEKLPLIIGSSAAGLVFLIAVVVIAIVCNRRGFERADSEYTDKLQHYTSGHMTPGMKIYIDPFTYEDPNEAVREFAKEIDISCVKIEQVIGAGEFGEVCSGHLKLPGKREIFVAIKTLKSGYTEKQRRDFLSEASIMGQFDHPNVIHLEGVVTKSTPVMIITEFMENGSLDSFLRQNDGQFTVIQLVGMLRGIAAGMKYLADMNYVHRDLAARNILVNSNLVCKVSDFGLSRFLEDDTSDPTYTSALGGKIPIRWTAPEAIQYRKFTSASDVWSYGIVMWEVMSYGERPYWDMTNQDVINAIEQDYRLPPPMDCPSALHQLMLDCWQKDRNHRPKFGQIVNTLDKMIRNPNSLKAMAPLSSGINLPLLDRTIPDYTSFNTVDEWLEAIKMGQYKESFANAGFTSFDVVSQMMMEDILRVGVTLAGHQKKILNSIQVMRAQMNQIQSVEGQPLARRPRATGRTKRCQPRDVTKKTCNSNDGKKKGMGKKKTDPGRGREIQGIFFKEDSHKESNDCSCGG

Fes = Fes (UniProt P07332); experiment: as above
FGFR1 = FGFR1 (UniProt P11362); experiment: as above
Grb2 SH2 = Grb2 SH2 (UniProt P62993); experiment: SH2 binding enrichment of the phosphorylated peptide, bacterial display (enrichment ratio); higher = better substrate or ligand; peptides without Tyr show the background
Chain of Grb2 SH2 (P62993 whole entry, looked up): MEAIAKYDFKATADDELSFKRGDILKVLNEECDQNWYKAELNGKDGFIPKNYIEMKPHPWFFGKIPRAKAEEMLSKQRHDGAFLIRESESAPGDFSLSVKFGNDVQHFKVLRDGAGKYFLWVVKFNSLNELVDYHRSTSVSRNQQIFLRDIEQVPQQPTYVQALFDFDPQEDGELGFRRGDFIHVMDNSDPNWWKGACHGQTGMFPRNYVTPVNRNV

c-Src SH2 = experiment: as above
SHP2-C SH2 = experiment: as above
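For SH2 binding enrichment of the phosphorylated peptide, bacterial display in this document: peptide library displayed on the E. coli surface as eCPX fusions, selected cells deep-sequenced, score is each peptide's frequency after selection divided by its frequency in the input.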
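For phosphorylation enrichment, bacterial display in this document: 11-residue human phosphosite peptides and single-mutation variants displayed on the E. coli surface, counted by deep sequencing, each peptide's frequency after selection divided by its frequency in the unselected input library; frequency after pTyr selection over input frequency; kinase dosed for 20-30% of maximal phosphorylation in three min.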

Chain of Hck (P08631 whole entry, looked up): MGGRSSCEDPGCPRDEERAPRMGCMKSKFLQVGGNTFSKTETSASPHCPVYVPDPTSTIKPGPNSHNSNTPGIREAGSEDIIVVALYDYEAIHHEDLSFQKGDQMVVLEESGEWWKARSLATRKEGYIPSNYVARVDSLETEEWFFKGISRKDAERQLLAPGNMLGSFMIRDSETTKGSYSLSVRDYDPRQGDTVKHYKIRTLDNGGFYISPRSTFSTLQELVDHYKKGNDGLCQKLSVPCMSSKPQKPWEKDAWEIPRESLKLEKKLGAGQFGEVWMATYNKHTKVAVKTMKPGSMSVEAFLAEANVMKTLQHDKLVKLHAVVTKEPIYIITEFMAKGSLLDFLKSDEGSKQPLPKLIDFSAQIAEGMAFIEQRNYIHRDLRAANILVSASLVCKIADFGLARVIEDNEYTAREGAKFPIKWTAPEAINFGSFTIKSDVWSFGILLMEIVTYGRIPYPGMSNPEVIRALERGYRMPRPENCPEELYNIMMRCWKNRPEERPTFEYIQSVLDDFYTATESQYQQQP

| Sequence | phosphorylation enrichment (Jak2) | phosphorylation enrichment (Hck) | phosphorylation enrichment (c-Src) | phosphorylation enrichment (MERTK) | phosphorylation enrichment (Fer (mouse)) | phosphorylation enrichment (FGFR3) | phosphorylation enrichment (AncSZ) | phosphorylation enrichment (EPHB1) | phosphorylation enrichment (c-Abl (mouse)) | phosphorylation enrichment (Fyn) | phosphorylation enrichment (EPHB2) | phosphorylation enrichment (Fes) | phosphorylation enrichment (FGFR1) | SH2 binding enrichment (Grb2 SH2) | SH2 binding enrichment (c-Src SH2) | SH2 binding enrichment (SHP2-C SH2) |
| --- | --- | --- | --- | --- | --- | --- | --- | --- | --- | --- | --- | --- | --- | --- | --- | --- |
| EYGSGYPNDPK [RNASEH2A_Y210_D205E] | 0.672 | 0.593 | 0.386 | 0.425 | 0.505 | 0.474 | 0.697 | 0.369 | 0.574 | 0.446 | 0.458 | 0.794 | 0.433 | 0.8 | 0.352 | 0.626 |
| EYITRYIDSLK [PSMA7_Y110_A112D] | 0.677 | 0.558 | 0.479 | 0.395 | 0.461 | 0.572 | 0.829 | 0.396 | 0.498 | 0.504 | 0.552 | 0.832 | 0.528 | 0.814 | 0.588 | 1.1 |
| EYLQKYKGFKI [SYNE1_Y6953] | 0.707 | 0.345 | 0.323 | 0.438 | 0.407 | 0.377 | 0.733 | 0.427 | 0.569 | 0.275 | 0.332 | 0.868 | 0.256 | 0.854 | 0.551 | 0.624 |
| FADIAYNFRQG [PAH_Y166_H170Q_YF] | 0.701 | 0.505 | 0.5 | 0.41 | 0.35 | 0.601 | 0.772 | 0.47 | 0.665 | 0.425 | 0.486 | 0.86 | 0.398 | 0.77 | 0.443 | 0.694 |
| FAKSVYWENTL [NUP107_Y296_YF] | 0.987 | 0.857 | 0.802 | 0.588 | 0.418 | 0.752 | 0.899 | 0.554 | 0.638 | 0.768 | 0.531 | 1.32 | 0.506 | 1.08 | 1.15 | 0.887 |
| FASTGYVIAIQ [GRIN2B_Y762_G763V] | 0.941 | 0.418 | 0.4 | 0.393 | 0.543 | 0.724 | 1.32 | 0.618 | 0.784 | 0.474 | 0.587 | 0.983 | 0.484 | 0.94 | 0.742 | 1.07 |
| FCGFSYDDIPD [TMEM230_Y112_R108C_YF] | 1.22 | 0.63 | 0.537 | 0.558 | 0.76 | 0.918 | 1.46 | 0.694 | 1.02 | 0.481 | 0.707 | 1.27 | 0.592 | 1.11 | 10.3 | 0.674 |
| FDDDDYDTDFV [BLM_Y296] | 0.958 | 0.538 | 0.494 | 0.509 | 0.531 | 0.78 | 1.26 | 0.662 | 0.767 | 0.563 | 0.549 | 1.14 | 0.586 | 0.803 | 0.555 | 0.702 |
| FDDIACIRKTL [PIK3CA_Y1021_Y1021C] | 0.787 | 0.448 | 0.378 | 0.386 | 0.424 | 0.756 | 0.911 | 0.603 | 0.661 | 0.374 | 0.629 | 1.03 | 0.497 | 0.668 | 0.51 | 0.471 |
| FDDIAYIRKNL [PIK3CA_Y1021_T1025N] | 0.494 | 0.5 | 0.379 | 0.416 | 0.361 | 0.56 | 0.864 | 0.409 | 0.483 | 0.403 | 0.506 | 0.852 | 0.432 | 0.768 | 0.556 | 0.759 |
| FDNSVYQKTTE [LDLR_Y828_P826S] | 0.673 | 0.668 | 0.657 | 0.432 | 0.374 | 0.641 | 0.924 | 0.487 | 0.701 | 0.515 | 0.488 | 0.913 | 0.51 | 0.808 | 0.768 | 0.559 |
| FEGHSYSACTT [MMP9_Y241_R239H] | 1.03 | 0.486 | 0.59 | 0.562 | 0.644 | 0.656 | 0.95 | 0.617 | 1.34 | 0.512 | 0.524 | 1.1 | 0.533 | 0.869 | 2.25 | 0.642 |
| FESPRYLQVHI [FANCA_Y488] | 0.867 | 0.564 | 0.411 | 0.495 | 0.676 | 0.61 | 0.928 | 0.782 | 0.949 | 0.408 | 0.461 | 1.04 | 0.534 | 0.912 | 0.648 | 0.781 |
| FETSHYLASPD [CTNND2_Y1217_P1218L_YF] | 0.73 | 0.513 | 0.523 | 0.664 | 0.502 | 0.752 | 0.791 | 0.878 | 0.658 | 0.557 | 0.635 | 0.824 | 0.568 | 0.923 | 0.473 | 0.904 |
